Source: IntAct's records for PubMed 35512704

B1: Speckle-type POZ protein (Homo sapiens), O43791 (parent)
chain: MSRVPSPPPPAEMSSGPVAESWCYTQIKVVKFSYMWTINNFSFCREEMGEVIKSSTFSSGANDKLKWCLRVNPKGLDEESKDYLSLYLLLVSCPKSEVRAKFKFSILNAKGEETKAMESQRAYRFVQGKDWGFKKFIRRDFLLDEANGLLPDDKLTLFCEVSVVQDSVNISGQNTMNMVKVPECRLADELGGLWENSRFTDCCLCVAGQEFQAHKAILAARSPVFSAMFEHEMEESKKNRVEINDVEPEVFKEMMCFIYTGKAPNLDKMADDLLAAADKYALERLKVMCEDALCSNLSVENAAEILILADLHSADQLKTQAVDFINYHASDVLETSGWKSMVVSHPHLVAEAYRSLASAQCPFLGPPRKRLKQS
partner: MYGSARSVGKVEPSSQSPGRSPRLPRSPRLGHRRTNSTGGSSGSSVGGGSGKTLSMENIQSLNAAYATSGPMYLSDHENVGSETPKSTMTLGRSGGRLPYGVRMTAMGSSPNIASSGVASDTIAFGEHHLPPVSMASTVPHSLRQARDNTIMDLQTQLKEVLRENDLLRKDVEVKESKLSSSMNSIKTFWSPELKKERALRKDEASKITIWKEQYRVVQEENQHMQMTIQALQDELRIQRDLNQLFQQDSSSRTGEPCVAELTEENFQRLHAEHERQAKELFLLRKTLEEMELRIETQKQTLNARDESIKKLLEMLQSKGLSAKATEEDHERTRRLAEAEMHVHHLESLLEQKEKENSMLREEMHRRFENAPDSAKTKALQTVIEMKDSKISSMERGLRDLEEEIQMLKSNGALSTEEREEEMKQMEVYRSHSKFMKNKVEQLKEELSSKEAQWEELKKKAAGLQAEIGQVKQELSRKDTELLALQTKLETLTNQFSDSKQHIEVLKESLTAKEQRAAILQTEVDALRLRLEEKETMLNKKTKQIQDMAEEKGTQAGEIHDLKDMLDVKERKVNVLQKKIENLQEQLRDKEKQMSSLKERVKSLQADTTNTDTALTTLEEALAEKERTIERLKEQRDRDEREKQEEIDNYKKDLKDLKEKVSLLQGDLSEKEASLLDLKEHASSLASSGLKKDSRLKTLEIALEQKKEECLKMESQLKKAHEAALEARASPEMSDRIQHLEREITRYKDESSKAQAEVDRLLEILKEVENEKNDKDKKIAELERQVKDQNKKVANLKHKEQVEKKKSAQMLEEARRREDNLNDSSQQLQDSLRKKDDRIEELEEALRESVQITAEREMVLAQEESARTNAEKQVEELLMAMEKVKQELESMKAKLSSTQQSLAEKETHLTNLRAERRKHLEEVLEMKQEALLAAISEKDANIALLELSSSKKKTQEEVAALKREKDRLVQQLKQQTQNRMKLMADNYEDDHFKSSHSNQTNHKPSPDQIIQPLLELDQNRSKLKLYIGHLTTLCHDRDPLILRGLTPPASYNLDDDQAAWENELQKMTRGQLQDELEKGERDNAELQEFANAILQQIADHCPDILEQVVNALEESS
B2: Speckle-type POZ protein (Homo sapiens), O43791 (parent)
chain: B1 chain
partner: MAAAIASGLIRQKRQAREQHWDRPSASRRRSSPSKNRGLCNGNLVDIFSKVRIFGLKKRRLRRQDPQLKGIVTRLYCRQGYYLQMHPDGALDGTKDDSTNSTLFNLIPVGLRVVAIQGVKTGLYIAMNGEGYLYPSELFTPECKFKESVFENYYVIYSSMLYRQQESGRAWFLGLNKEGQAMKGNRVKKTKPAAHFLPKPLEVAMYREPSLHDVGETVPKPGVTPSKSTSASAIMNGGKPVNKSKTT
B3: Speckle-type POZ protein (Homo sapiens), O43791 (parent)
chain: B1 chain
partner: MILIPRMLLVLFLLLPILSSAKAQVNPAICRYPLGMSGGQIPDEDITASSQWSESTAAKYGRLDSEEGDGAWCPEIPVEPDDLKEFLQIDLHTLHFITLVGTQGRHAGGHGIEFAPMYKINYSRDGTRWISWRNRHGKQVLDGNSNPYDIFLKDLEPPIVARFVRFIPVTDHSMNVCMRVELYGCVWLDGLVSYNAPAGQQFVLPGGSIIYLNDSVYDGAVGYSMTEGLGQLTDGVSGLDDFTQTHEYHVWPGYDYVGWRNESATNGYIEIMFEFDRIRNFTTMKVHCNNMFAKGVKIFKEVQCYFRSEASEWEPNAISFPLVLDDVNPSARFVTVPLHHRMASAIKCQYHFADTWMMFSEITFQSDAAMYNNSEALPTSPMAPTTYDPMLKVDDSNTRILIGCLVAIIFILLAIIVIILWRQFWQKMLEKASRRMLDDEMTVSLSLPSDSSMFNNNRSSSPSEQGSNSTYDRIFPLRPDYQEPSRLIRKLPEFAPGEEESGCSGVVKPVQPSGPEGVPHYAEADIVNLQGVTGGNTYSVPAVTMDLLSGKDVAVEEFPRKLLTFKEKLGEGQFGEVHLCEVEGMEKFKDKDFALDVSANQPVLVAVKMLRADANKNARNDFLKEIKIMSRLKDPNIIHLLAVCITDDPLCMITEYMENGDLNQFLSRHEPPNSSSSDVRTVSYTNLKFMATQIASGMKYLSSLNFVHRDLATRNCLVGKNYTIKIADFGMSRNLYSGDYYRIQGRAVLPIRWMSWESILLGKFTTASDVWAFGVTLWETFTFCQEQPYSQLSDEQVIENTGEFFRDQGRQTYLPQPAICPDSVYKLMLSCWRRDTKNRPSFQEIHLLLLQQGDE

Variants of: B1
Details: with rb6i2_human ERC1, Q8IUD2

Variant	effect of a mutation on the interaction
Y87C	with no effect

Variants of: B1
Details: with rb6i2_human ERC1, Q8IUD2
Remark: another data set of the same source

Variant	effect of a mutation on the interaction
F133V	with no effect

Variants of: B1
Details: with rb6i2_human ERC1, Q8IUD2
Remark: another data set of the same source

Variant	effect of a mutation on the interaction
F133L	with no effect

Variants of: B1
Details: with rb6i2_human ERC1, Q8IUD2
Remark: another data set of the same source

Variant	effect of a mutation on the interaction
F102C	with no effect

Variants of: B2
Details: with fgf14_human FGF14, Q92915

Variant	effect of a mutation on the interaction
F133V	with no effect

Variants of: B2
Details: with fgf14_human FGF14, Q92915
Remark: another data set of the same source

Variant	effect of a mutation on the interaction
F133L	with no effect

Variants of: B2
Details: with fgf14_human FGF14, Q92915
Remark: another data set of the same source

Variant	effect of a mutation on the interaction
F102C	with no effect

Variants of: B2
Details: with fgf14_human FGF14, Q92915
Remark: another data set of the same source

Variant	effect of a mutation on the interaction
Y87C	with no effect

Variants of: B3
Details: with ddr2_human DDR2, Q16832

Variant	effect of a mutation on the interaction
F102C	with no effect

Variants of: B3
Details: with ddr2_human DDR2, Q16832
Remark: another data set of the same source

Variant	effect of a mutation on the interaction
F133L	with no effect

Variants of: B3
Details: with ddr2_human DDR2, Q16832
Remark: another data set of the same source

Variant	effect of a mutation on the interaction
F133V	with no effect
